Measurements taken from paper PMC8560823, “Structural insights into the clustering and activation of Tie2 receptor mediated by Tie2 agonistic antibody” (Nature Communications, 2021).
Values belong to the binder of their own block, whether it stands above or below them.

Legend:
[1] = target: T1, mouse Tie2 Ig3–Fn3 (Mus musculus, UniProt Q02858); assay: BLI; Octet, 30 °C; humanized IgG1s and mouse Tie2; how the humanized IgG1s were loaded is not told (Supplementary Fig. 5f); details: both partners purified
T1 construct: mouse Tie2, Ig3–Fn3, residues 349–737; also called mTie2 Ig3–Fn3; mTie2

[2] = target: T2, human Tie2 extracellular domain (hTie2 ECD) (human, UniProt Q02763); assay: SPR; Biacore T200; hTie2 ECD immobilised on CM5 chip by amine coupling (10 mM acetate pH 5.5); antibodies flowed at 0-64 nM, 300 s association, 300 s dissociation, 30 µl/min; HBS-EP+ buffer; 1:1-binding model, global fit; details: both partners purified
T2 construct: human Tie2, extracellular domain, residues 23–735 of human Tie2; Host, tags and purification of the ECD are not described; also called Human Tie2 ECD; source: produced in house

[3] = target: T1, mouse Tie2 Ig3–Fn3; assay: BLI; Octet, 30 °C; mouse hTAAB (10 μg/ml) loaded on anti-mouse IgG Fc capture (AMC) biosensors; 1600 nM mouse Tie2 Ig3–Fn3 in kinetics buffer (0.01% BSA, 0.002% Tween-20, 0.005% NaN3 in PBS); 600 s association, 600 s dissociation; details: both partners purified
[4] = target: the molecule itself; assay: cross-linking; engineered disulfide bonds (D682C/N691C) across the Fn3–Fn3' interface; SDS-PAGE with Coomassie blue under reducing and non-reducing conditions

T1 sequence (Q02858 349-737): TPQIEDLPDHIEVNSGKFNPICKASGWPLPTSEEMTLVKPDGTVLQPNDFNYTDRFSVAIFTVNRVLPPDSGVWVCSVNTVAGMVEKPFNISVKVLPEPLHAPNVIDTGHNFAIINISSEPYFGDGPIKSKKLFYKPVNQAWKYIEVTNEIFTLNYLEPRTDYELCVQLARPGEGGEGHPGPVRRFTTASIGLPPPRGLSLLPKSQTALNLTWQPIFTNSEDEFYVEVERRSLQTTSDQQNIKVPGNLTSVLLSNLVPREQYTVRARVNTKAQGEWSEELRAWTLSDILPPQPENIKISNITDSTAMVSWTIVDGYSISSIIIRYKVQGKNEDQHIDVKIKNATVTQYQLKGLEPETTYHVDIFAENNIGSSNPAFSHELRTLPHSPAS
T2 sequence (Q02763 23-735): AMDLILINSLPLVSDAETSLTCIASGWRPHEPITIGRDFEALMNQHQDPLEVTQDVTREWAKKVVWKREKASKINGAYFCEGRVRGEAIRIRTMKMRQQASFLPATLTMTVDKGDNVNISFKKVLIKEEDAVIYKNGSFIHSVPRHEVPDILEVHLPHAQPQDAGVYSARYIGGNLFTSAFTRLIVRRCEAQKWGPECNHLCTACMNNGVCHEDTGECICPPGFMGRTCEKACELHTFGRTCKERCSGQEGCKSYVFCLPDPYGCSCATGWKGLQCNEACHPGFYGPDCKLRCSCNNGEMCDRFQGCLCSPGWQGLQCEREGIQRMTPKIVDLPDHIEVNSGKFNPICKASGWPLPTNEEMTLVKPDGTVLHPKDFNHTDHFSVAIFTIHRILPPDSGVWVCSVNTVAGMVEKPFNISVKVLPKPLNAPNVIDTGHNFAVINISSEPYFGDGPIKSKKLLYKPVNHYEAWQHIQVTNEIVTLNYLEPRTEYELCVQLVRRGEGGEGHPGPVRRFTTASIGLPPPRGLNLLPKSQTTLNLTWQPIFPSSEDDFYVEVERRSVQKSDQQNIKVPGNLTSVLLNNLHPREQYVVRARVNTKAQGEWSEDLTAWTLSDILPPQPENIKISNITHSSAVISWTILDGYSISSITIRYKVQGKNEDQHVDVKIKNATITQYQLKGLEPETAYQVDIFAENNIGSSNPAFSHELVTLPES

binding result [1]: no binding (tested: 1600 nM)
B1: hzTAAB-H1L1 (antibody, V domains shown)
VH: QVQLVQSGAEVKKPGASVKVSCKASGYSFTSYWMHWVRQAPGQGLEWMGIIHPSDSETRYAQKFQGRVTMTRDTSTSTVYMELSSLRSEDTAVYYCARGLYGNSWGQGTLVTVSS
VL: DIQMTQSPSSLSASVGDRVTITCRASQDIGISLGWYQQKPGKAPKRLIYATSSLQSGVPSRFSGSGSGTEFTLTISSLQPEDFATYYCLQYASSPYTFGQGTKLEIK

binding result [1]: no binding (tested: 1600 nM)
B2: hzTAAB-H2L2 (antibody, V domains shown)
VH: QVQLVQSGAEVKKPGASVKVSCKASGYSFTSYWMHWVRQAPGQGLEWMGIIHPSDSETRYAQKFQGRVTMTVDKSTSTVYMELSSLRSEDTAVYYCARGLYGNSWGQGTLVTVSS
VL: DIQMTQSPSSLSASVGDRVTITCRASQDIGISLNWLQQKPGKAPKRLIYATSSLDSGVPSRFSGSRSGTEFTLTISSLQPEDFATYYCLQYASSPYTFGQGTKLEIK

binding result [1]: no binding (tested: 1600 nM)
B3: hzTAAB-H2L1 (antibody, V domains shown)
VH: QVQLVQSGAEVKKPGASVKVSCKASGYSFTSYWMHWVRQAPGQGLEWMGIIHPSDSETRYAQKFQGRVTMTVDKSTSTVYMELSSLRSEDTAVYYCARGLYGNSWGQGTLVTVSS
VL: DIQMTQSPSSLSASVGDRVTITCRASQDIGISLGWYQQKPGKAPKRLIYATSSLQSGVPSRFSGSGSGTEFTLTISSLQPEDFATYYCLQYASSPYTFGQGTKLEIK

binding result [1]: no binding (tested: 1600 nM)
B4: hzTAAB-H1L2 (antibody, V domains shown)
VH: QVQLVQSGAEVKKPGASVKVSCKASGYSFTSYWMHWVRQAPGQGLEWMGIIHPSDSETRYAQKFQGRVTMTRDTSTSTVYMELSSLRSEDTAVYYCARGLYGNSWGQGTLVTVSS
VL: DIQMTQSPSSLSASVGDRVTITCRASQDIGISLNWLQQKPGKAPKRLIYATSSLDSGVPSRFSGSRSGTEFTLTISSLQPEDFATYYCLQYASSPYTFGQGTKLEIK

Kd [2]: 4.2 nM
koff [2]: 0.0006 s⁻¹
kon [2]: 140000 M⁻¹ s⁻¹
binding result [3]: no binding (tested: 1600 nM)
B5: human Tie2-activating antibody (hTAAB), mouse IgG1 (antibody, V domains shown)
VH: QVQLQQPGAELVRPGASVKLSCKASGYSFTSYWMNWVKQRPGQGLEWIGMIHPSDSETRLNQKFMDKATLTVDKSSSTAYMQLSSPTSEDSAVYYCARGLYGNSWGQGTLVTVSA
VL: DIQMTQSPSSLSASLGERVSLTCRASQDIGISLNWLQQEPDGTIKRLIYATSSLDSGVPKRFSGSRSGSDYSLTISSLESEDFVDYYCLQYASSPYTFGGGTKLEIK
notes: heavy-chain variable region of hTAAB (clone 3H7; closest germline mIGHV1-61*01); mouse IgG1 heavy-chain constant region; light-chain variable region of hTAAB (clone 3H7; closest germline mIGKV9-120*01); mouse kappa light-chain constant region; Mouse IgG1 from the hybridoma; also called 3H7; mouse hTAAB; source: B-cell hybridoma clone 3H7, serum-free culture supernatant, purified (Protein G); …

B6: hTie2 Ig3–Fn3 D682C/N691C (domain or fragment, human, UniProt Q02763 349-738, looked up)
chain: TPKIVDLPDHIEVNSGKFNPICKASGWPLPTNEEMTLVKPDGTVLHPKDFNHTDHFSVAIFTIHRILPPDSGVWVCSVNTVAGMVEKPFNISVKVLPKPLNAPNVIDTGHNFAVINISSEPYFGDGPIKSKKLLYKPVNHYEAWQHIQVTNEIVTLNYLEPRTEYELCVQLVRRGEGGEGHPGPVRRFTTASIGLPPPRGLNLLPKSQTTLNLTWQPIFPSSEDDFYVEVERRSVQKSDQQNIKVPGNLTSVLLNNLHPREQYVVRARVNTKAQGEWSEDLTAWTLSDILPPQPENIKISNITHSSAVISWTILDGYSISSITIRYKVQGKNECQHVDVKIKCATITQYQLKGLEPETAYQVDIFAENNIGSSNPAFSHELVTLPESQAP
modifications: two intermolecular disulfide bonds between the introduced cysteines 682 and 691
notes: human Tie2, Ig3–Fn3, residues 349–738, with D682C and N691C; Made by overlap extension PCR from the pFuse-hTie2 Ig3–Fn3–hIgG1–Fc construct; also called constitutive Tie2 Ig3–Fn3 dimer; Tie2 dimeric mutant; source: Expi293F, secreted as Fc fusion, purified as for hTie2 Ig3–Fn3 (MabSelect SuRe, Fc removed by thrombin); not shown: Fc (human IgG1), C-terminal, cleaved
binding result [4]: binds
